According to article PMC8980529, “Complement Factor H-Related Proteins FHR1 and FHR5 Interact With Extracellular Matrix Ligands, Reduce Factor H Regulatory Activity and Enhance Complement Activation” (Frontiers in Immunology, 2022):

B1: Recombinant human factor H-related protein 5 (natural protein, UniProt Q9BXR6 19-569, looked up)
chain: EGTLCDFPKIHHGFLYDEEDYNPFSQVPTGEVFYYSCEYNFVSPSKSFWTRITCTEEGWSPTPKCLRMCSFPFVKNGHSESSGLIHLEGDTVQIICNTGYSLQNNEKNISCVERGWSTPPICSFTKGECHVPILEANVDAQPKKESYKVGDVLKFSCRKNLIRVGSDSVQCYQFGWSPNFPTCKGQVRSCGPPPQLSNGEVKEIRKEEYGHNEVVEYDCNPNFIINGPKKIQCVDGEWTTLPTCVEQVKTCGYIPELEYGYVQPSVPPYQHGVSVEVNCRNEYAMIGNNMITCINGIWTELPMCVATHQLKRCKIAGVNIKTLLKLSGKEFNHNSRIRYRCSDIFRYRHSVCINGKWNPEVDCTEKREQFCPPPPQIPNAQNMTTTVNYQDGEKVAVLCKENYLLPEAKEIVCKDGRWQSLPRCVESTAYCGPPPSINNGDTTSFPLSVYPPGSTVTYRCQSFYKLQGSVTVTCRNKQWSEPPRCLDPCVVSEENMNKNNIQLKWRNDGKLYAKTGDAVEFQCKFPHKAMISSPPFRAICQEGKFEYPICE
notes: complement factor H-related protein 5 (FHR5), human, recombinant; called 'full-length FHR5' in the discussion; Commercial recombinant protein; The discussion speaks of 'the dimerized full-length protein'; also called FHR5; full-length FHR5; source: bought: Novoprotein via Gentaur (recombinant)
B2: Human vitronectin (natural protein, UniProt P04004 20-478, looked up)
chain: DQESCKGRCTEGFNVDKKCQCDELCSYYQSCCTDYTAECKPQVTRGDVFTMPEDEYTVYDDGEEKNNATVHEQVGGPSLTSDLQAQSKGNPEQTPVLKPEEEAPAPEVGASKPEGIDSRPETLHPGRPQPPAEEELCSGKPFDAFTDLKNGSLFAFRGQYCYELDEKAVRPGYPKLIRDVWGIEGPIDAAFTRINCQGKTYLFKGSQYWRFEDGVLDPDYPRNISDGFDGIPDNVDAALALPAHSYSGRERVYFFKGKQYWEYQFQHQPSQEECEGSSLSAVFEHFAMMQRDSWEDIFELLFWGRTSAGTRQPQFISRDWHGVPGQVDAAMAGRIYISGMAPRPSLAKKQRFRHRNRKGYRSQRGHSRGRNQNSRRPSRATWLSLFSSEESNLGANNYDDYRMDWLVPATCEPIQSVFFFSGDKYYRVNLRTRRVDTVDPPYPRSIAQYWLGCPAPGHL
notes: vitronectin, human; source: bought: Sigma-Aldrich

Legend:
Details in all cases: both partners purified
Purified human C3b = target: T1, Purified human C3b (human, UniProt P01024 23-667; P01024 749-1663); assay: ELISA; FHR5, CCPs 1-4, CCPs 3-7, CCPs 8-9 and HSA immobilised at 5 µg/ml, blocked with 4% BSA; 20 µg/ml C3b, iC3b, C3c or 10 µg/ml C3d added; detected with anti-human C3 or anti-human C3d
T1 construct: complement C3 beta chain, human; complement C3b alpha' chain, human; also called soluble C3b; fluid-phase C3b; source: bought: Merck (purified human)

C3(H2O) = target: T2, C3(H2O) (human, UniProt P01024 23-667; P01024 672-1663); assay: ELISA; 10 µg/ml FHR5, CCPs 1-4, CCPs 3-7, CCPs 8-9 and alpha-1-antitrypsin immobilised, incubated with 5 µg/ml C3, C3(H2O) and C3b; detected with anti-human C3
T2 construct: complement C3 beta chain, human; complement C3 alpha chain, human; Same chains as C3; source: generated from purified human C3 (Merck) with ten freeze/thaw cycles

Purified human factor H = target: T3, Purified human factor H (human, UniProt P08603 19-1231); assay: peptide or protein array; competition: printed ECM proteins incubated with 25 µg/ml FH with or without FHR1 (5, 25, 50 µg/ml) or FHR5 (0.5, 5, 20 µg/ml); bound FH detected with mAb A254 that does not cross-react with FHR1 and FHR5
T3 construct: complement factor H, human, 155-kDa serum glycoprotein, 20 CCP domains; also called FH; source: bought: Merck (purified human)

[1] = target: B1; assay: peptide or protein array; ECM proteins (0.5 mg/ml) printed on nitrocellulose-covered slides in triplicates, blocked with 4% BSA; incubated with FHR1 (5, 25, 50 µg/ml) or FHR5 (0.5, 5, 20 µg/ml); detected with goat anti-human FH or anti-FHR5 and Alexa-647 anti-goat IgG; signal above gelatin taken as binding
Human vitronectin = target: B2; assay: as above

T1 sequence (P01024 23-667, chain 1 of 2): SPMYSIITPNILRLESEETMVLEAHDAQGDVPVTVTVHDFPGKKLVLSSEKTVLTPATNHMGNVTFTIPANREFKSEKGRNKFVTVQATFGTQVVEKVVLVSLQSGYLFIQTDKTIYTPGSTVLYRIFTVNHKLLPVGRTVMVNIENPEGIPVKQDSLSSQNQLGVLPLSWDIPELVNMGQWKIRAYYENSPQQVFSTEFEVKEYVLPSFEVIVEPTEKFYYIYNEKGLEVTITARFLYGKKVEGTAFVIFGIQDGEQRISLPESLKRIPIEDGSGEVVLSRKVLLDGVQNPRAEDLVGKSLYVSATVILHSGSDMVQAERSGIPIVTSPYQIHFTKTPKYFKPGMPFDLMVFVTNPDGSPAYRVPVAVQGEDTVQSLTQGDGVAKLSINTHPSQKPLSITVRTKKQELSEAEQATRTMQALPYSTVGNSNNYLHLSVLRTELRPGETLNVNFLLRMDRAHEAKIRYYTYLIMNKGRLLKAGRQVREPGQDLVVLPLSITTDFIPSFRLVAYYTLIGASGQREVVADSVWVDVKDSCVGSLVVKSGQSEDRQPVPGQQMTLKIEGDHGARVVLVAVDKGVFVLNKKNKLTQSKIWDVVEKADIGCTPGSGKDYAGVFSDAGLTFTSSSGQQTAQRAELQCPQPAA
T1 sequence (P01024 749-1663, chain 2 of 2): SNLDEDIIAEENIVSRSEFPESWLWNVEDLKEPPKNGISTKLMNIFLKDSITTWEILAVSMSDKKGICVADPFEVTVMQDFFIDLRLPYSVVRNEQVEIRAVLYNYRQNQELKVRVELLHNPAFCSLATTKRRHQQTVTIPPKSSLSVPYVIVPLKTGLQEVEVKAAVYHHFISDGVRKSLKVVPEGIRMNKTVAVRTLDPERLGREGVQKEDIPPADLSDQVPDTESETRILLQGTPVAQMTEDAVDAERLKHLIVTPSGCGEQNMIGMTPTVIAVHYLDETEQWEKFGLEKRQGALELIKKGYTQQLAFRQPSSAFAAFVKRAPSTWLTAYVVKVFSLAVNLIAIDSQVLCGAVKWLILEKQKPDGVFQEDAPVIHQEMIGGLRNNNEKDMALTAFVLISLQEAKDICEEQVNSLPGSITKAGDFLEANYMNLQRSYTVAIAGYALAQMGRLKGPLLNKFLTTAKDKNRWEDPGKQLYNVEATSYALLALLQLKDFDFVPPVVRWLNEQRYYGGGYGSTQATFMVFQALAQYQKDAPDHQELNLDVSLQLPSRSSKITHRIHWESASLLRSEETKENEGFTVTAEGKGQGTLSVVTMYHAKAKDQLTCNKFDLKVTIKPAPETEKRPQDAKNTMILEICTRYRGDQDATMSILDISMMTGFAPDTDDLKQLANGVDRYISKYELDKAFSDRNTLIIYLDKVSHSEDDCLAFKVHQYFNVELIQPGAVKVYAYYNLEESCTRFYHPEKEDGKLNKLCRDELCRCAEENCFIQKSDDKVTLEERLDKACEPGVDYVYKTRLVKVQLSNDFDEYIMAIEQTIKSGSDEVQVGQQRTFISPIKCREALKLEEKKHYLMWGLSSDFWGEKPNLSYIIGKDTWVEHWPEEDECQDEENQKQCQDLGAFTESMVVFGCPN
T2 sequence (P01024 23-667, chain 1 of 2): as the sequence (P01024 23-667, chain 1 of 2) above
T2 sequence (P01024 672-1663, chain 2 of 2): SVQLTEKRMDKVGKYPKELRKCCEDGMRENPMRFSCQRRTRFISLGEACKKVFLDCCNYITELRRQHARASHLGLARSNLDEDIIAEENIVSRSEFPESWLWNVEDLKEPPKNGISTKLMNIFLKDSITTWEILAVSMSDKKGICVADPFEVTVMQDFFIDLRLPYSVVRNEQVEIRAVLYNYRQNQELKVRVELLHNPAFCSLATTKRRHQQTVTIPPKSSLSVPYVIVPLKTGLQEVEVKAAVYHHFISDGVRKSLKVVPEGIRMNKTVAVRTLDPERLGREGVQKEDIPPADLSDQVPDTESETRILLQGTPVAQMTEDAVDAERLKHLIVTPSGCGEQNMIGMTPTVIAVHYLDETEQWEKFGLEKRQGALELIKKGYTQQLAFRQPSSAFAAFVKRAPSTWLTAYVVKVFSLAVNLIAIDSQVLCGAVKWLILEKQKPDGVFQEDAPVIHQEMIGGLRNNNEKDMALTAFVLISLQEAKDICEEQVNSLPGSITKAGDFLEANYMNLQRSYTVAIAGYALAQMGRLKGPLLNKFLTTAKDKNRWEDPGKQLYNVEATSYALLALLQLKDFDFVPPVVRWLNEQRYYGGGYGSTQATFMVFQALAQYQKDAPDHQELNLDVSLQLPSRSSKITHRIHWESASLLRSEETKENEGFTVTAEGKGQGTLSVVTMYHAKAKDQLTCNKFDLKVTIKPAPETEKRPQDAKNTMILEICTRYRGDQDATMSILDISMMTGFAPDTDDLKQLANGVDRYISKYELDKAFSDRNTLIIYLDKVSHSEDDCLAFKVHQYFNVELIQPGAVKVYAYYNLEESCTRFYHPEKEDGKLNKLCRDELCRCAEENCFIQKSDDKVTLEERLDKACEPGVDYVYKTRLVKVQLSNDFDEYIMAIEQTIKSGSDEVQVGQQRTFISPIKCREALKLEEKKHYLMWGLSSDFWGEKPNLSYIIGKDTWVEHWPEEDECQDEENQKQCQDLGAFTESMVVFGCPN

Does B1 bind (Purified human C3b)?
Result: binds

Does B1 bind (C3(H2O))?
Result: binds

Does B2 bind (Purified human factor H)?
Result: binds

Does B2 bind [1]?
Result: binds

B3: Recombinant human factor H-related protein 1 (natural protein, UniProt Q03591 19-330, looked up)
chain: EATFCDFPKINHGILYDEEKYKPFSQVPTGEVFYYSCEYNFVSPSKSFWTRITCTEEGWSPTPKCLRLCFFPFVENGHSESSGQTHLEGDTVQIICNTGYRLQNNENNISCVERGWSTPPKCRSTDTSCVNPPTVQNAHILSRQMSKYPSGERVRYECRSPYEMFGDEEVMCLNGNWTEPPQCKDSTGKCGPPPPIDNGDITSFPLSVYAPASSVEYQCQNLYQLEGNKRITCRNGQWSEPPKCLHPCVISREIMENYNIALRWTAKQKLYLRTGESAEFVCKRGYRLSSRSHTLRTTCWDGKLEYPTCAKR
notes: complement factor H-related protein 1 (FHR1), human, recombinant; Commercial recombinant protein; also called FHR1; source: bought: Novoprotein via Gentaur (recombinant)
Does B3 bind (Human vitronectin)?
Result: binds
